Source: PMC3034650 (FEBS letters, 2010)

Target: T1, Human IκBα(67-287), unhydroxylated (human, UniProt P25963 67-287)
T1 sequence (looked up): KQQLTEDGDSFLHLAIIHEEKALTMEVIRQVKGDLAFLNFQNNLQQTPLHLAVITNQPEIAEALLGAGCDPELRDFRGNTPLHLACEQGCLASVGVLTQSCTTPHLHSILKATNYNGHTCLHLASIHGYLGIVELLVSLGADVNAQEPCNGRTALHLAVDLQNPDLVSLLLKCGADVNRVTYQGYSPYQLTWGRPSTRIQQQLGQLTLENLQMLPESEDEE
Experiment: SPR

Kd: 62 ± 12 pM
B1: NFκB (p50(248-321)/p65(190-321)) (complex)
chain 1: LKIVRMDRTAGCVTGGEEIYLLCDKVQKDDIQIRFYEEEENGGVWEGFGDFSPTDVHRQFAIVFKTPKYKDVNI
chain 2: NTAELKICRVNRNSGSCLGGDEIFLLCDKVQKEDIEVYFTGPGWEARGSFSQADVHRQVAIVFRTPPYADPSLQAPVRVSMQLRRPSDRELSEPMEFQYLPDTDDRHRIEEKRKRTYETFKSIMKKSPFNGP
modifications: biotin at the N-terminus
